This experiment addresses anti-BBP1 polyclonal antibody. Kind of experiment: competitive ELISA, free peptide against coated BBP1-biotin peptide for the anti-BBP1 polyclonal antibody.

Results on one molecule are retold here after patent publication US20180244734A1.

Molecule HSYSTNSFSRTTNG [BBP1 peptide (SEQ ID No. 7)] had a lowest level detected of 2.5 µg/mL.
